Assay: soluble on expression in E. coli; label from the status in PepcDB or PDB records

| Sequence | soluble on expression in E. coli |
| --- | --- |
| MSLAIPRQKMPAQDPVERVGNFKEVNLGLTPEQAQQEALRCIQCKDPVCIAGCPVNIKIDQFIKLIAEGDFMGAVRKIKEDNVLPSICGRVCPQEDQCEKVCVIGKKHEPVAIGNLERFVGDYERTSGQKIDPKIAPPTGKKVAVVGSGPAGLSCANDLAQYGHKVVVFEALHELGGVLMYGIPEFRLPKEIVREELDGLRRMGIEFRTDVVVGRTITIDELMEEEGFDAVFIGVGAGLPWFMGIPGENLVGVLAANEFLTRVNLMKAYDFLKSSDTPVFDCKGKNVAVFGGGNTAMDAVRTAKRLGAEHAYIVYRRSEKEMPAREEEIHNAKEEGIEFLLLTTPLEFVGDEKAWLTGAKCQKMELGEPDDSGRRRPVPVEGSEYILPIDMAIISIGNGPNPLIHQTTPDIEVSKRETIVVDVNTMQTSKENVYAGGDIVTGGATVILAMGAGRKAAAAINEKLGGTAKNEGHHHHHH | soluble |
| MSLSLDTAREAVQKKPLLYDKGGEEHYNVISAFIKSMRGSDPDGALYWLARMIEAGEDPIFILRRMVILASEDIGNADPRALQVAVTALQGFQLVGMPEGRIIIGQAVTYLATAPKSNASYVGIDAALAEVRKSGALPVPLHIRNAPTRLMKDLGYGTGYRYAHDYAEGYVAQDYLPDQIKGRKYYDPTGHGYEKSIKERMEWLKGKKEGHHHHHH | not soluble |
| MYNNEPGAQSDPTLGYTFQNDFLALSQAFSLPEIDYTDISQREQLAAAIKRWPLLAEFAQPHSLRKP | not soluble |
| MRGSHHHHHHTDPALRACELLGMSANVPTDICFSFTGLVQRGGGTGPHKDGWGITFYEGKGCRTFKDPQPSFNSPIAKLVQDYPIKSCSVVAHIRQANRGEVALENTHPFTRELWGRNWTYAHNGQLTGYKSLETGNFRPVGETDSEKAFCWLLHKLTQRYPRTPGNMAAVFKYIASLADELRQKGVFNMLLSDGRYVMAYCSTNLHWITRRAPFGVATLLDQDVEIDFSSQTTPNDVVTVIATQPLTGNETWQKIMPGEWRLFCLGERVVGLCGR | soluble |
| MGEHKNCKCNRWVISLQAAFDRDDFEKLFRKAVQSITEEEFQRIPEFRHREDALACLFGRLLLRHSAQKFSGEPWNTIRFERTERGKPFLAVPADTTFGLNVSHQGDYVAFASSCSSKVGVDVMRLDNERNNKTADEYINSMAKSASPEELRMMRSQPTEAMKMTMFYRYWCLKEAILKATGVGIMKDLNSLDFRVNLQDRYRPGAFVTSTTVLEDGRLQDQWIFEETFVDAKHSAAVCKEKKLPRECVFRQDPEAKIFFSKITFESLLENAEITNPMPNNAADIFEEFMAKPKKTF | not soluble |
| MGSDKIHHHHHHMAYIIPSDISAAALAGAHGPELETLAGLKTALSSDYTVYHGVHWSYDYRGQIRFGEADFVVVNQAGEMVVIEQKNGRLEDTAEGLIKVYGNTRKDVQSQVRRSVENIREKMRAASGSPPPSIDYLIYCPDHRLVRLNAVGLDVSRIVSGATPADLAGRIRQILPPGSKGGATENVHAFLRDAFQVVADVHAHVKAHERSYTRLIGGIADIVDSIEMAPLRLRLRGAPGSGKTVVAHRLYERALARGRRPLMVCFNHPLAERLAASVSPGGRVTTWHGLCVNFLAERGLKPNFEDAARNRSFWPDLAELIIAEPVPDAWRFDTLIVDEGQDFEPGWIDILHLFLTDAADIVWLEDPAQELRGIGRNELPGFVGLSVRTNYRTPQSIARFVKRALGADFVAANDLPGLGVGVSTYGLEDEQAVHLSRIVPALVRQGFAPDQIVIVTLKGATTSVLSQMTRIGTHEVSHFTGAYGDDGRQVRSRGLIRFESVQRFKGQQAPAVIVVDVNPASDPNKAERHLRQLFSAFTRATIRLEILAQKDNPMTARLLGSL | not soluble |
| MSSTKRPASRADEITQELVRMIQLADARRIAKLPTEMELAAQLGISRPVIRESLSRLESLNMVTRRQGSGLYIVAPEKRSPEALVLLEQSAPLSPRSIAEAMSVRAILELETGRLAALNHRQVDLDRMAAEIERLAATGARGLEAAEADEAFHRALSDAAGNVTLSQVLDLFLRLSWRRRVEYFSQPKLGKQSIIEHQEILNAVASGDPDAVSTAIRTHLNSAERFWDSKYVKKKS | not soluble |
| MSLITLKELAKQLNVSVSTVSKALHDAKDISEGTKKRIKEAAQLYNYRPNKTALALKVNKTNTIGVIIPDILNPFFAQVLHGIEDYATEHNYDTIVCVSHDQLKKEAQSLDLLMQGRVDGFILSLSSESLAQDNFLHIDQIALNKKGLVLFDRTTDQVDCDKVVIDDKRSVYDATRILISKGKTKIAFVSNIEDLNLGQLRKEGYENALRDHGIEVNYSLNLDLTGSSDPHGLIKAFLSMQEIDGVISADNTSSLMFKSILKSERPDTNSEIPLIGFSDEKNSLLSYPRIDYIDQNAMKIGSKAAELLINRLESKDLTSKPITFEMPTEIHLYEGHHHHHH | soluble |
| MGSDKIHHHHHHMTQPFKDAIGICKAIMRNGYDAYVVNTQLQSEILDQDCLEIDIACEPGYVELGKIFPGLEMSGEDGVVGTLREGGTLFRFYHTDTDDSSHPEATLARVTPTMLRRLEAKGTLPASLACPFIPSSAETYQGFDDFSKGDIRFEGVPDETLRRSYVLGVRAMRIAANFDLPIEPNSWMAIVRSASRILDYVPVTEIMDEWRKVEAENMYKFVQLMFDSMLLHGLIPELAALSRIRHLRTPEAGEETVLDHTIECMRRYPEELPFDWLGTVATMFHDVGKLYAAEYYNGKWTFYQHHRIGAKVTRKILRRLHFLPEDVDLICHLVRNHMRFHFMLTDKGIRRFKALDEYPRLIEMARADIKARDGNYTHFNHNMKYLERAETPEQMLEPLLNGNEIMEFTGLKPGPYVGVIRDALLKAQVTGEVTSMEEAIEYVKTYSERAPR | not soluble |
| HEHNTIPKGASIEVKVQQLDPVNGNKDVGTVTITESNYGLVFTPDLQGLSEGLHGFHIHENPSCEPKEEEGELTAGLGAGGHWDPKGAKQHGYPWQDDAHLGDLPALTVLHDGTATNPVLAPRLKHLDDVRGHSIMIHTGGDNHSDHPAPLGGGGPRMACGVIK | soluble |
| MGGSHHHHHHGMASALERYAAALEEVADGARQQERHYQLLSALQSLVKELPSSFQQRLSYTTLSDLALALLDGTVFEIVQGLLEIQHLTEKSLYNQRLRLQNEHRVLRQALRQKHQEAQQACRPHNLPVVQAAQQRELEAVEHRIREEQRAMDQKIILELDRKVADQQSTLEKAGVAGFYVTTNPQELMLQMNLLELIRKLQQRGCRAGNAALGLGGPWQSPAAQCDQKGSPVPP | not soluble |
| MINKTKRLMVPRTVKIPRKTYFWGPTPLPGRHKADHSVTLLTIIRDYLRLSDKEREATRILANGLVKVDGKVVKERKFGVGFMDVIEISGESYRVVYNNQGALVLVSESKDRANMKPLQVKNKVIAPGNKIQLGFHDGRVMVTEDRSISVGDVVIASLPDMKITEIIKMQPGNKAFITGGSHVGETGTISKIEIKESSSANLVHFDEGFTTVKDHVFVIGSPRFTFTMPSGEVYPLEHHHHHH | not soluble |
| MGSDKIHHHHHHAQYVVTGGSGSPMKASQSSGDSAERLEVYLVYGMDNVTISYTSSSSSSHQWYRYKTKRLEAEKVASTQNGTTSTIRNVEEGYGYFVEEGAVSRYVWIVDYSKYTLNISNLHVSDNSDPCSGLVLAGTGTIQPIYYYWPNTGTRRELSRQFDVIYNTLEYNSDKKEYTSKQETAVIEGNLFGKSIPAPWCDTEICVKGDYFARHFGKEVTLCIDEYQAAAVDAHIDTLLIEQEAPNMNTTKSGYCAPATVQFSAIANTPTAALFNWKIYRQGEEDNPVVRFTGEEVDYTFNQSGTFIIKLEVSDQSTTCSTEDEVQIDISESYLMIPNAFSPGTTPGINDEFRVAYKSLVKFKAWIFNRWGLQMYYWTDPAQGWDGKKGGKYVQPGVYFYVIEAEGSDGIKYKEKGDINILRPKTIQDENENIQE | not soluble |
| MGSDKIHHHHHHMINHHPNSDVLAQFVAGTLPASVSVLVASHVELCSECTRAVQALTEQAAIDAFGESSQEALRDASQPAGLADVSGLDDFDGLDDFDTSDQFGDSDEFADCINAITALERDDTQQLPQTVTEIAVGGERIPLPTALRSIPLKEWQGMGKLSRSRLALDDGDLRMSLLHIDKGGSVPCHTHKGFEITLLLQGSFTDEMGEYRKGDFIWLDGQHTHQPVTEKGCVCLTVSSDAIRFTQGVSQLLNPIGRFIY | not soluble |
| MFNKLSTPIHIIGGGLAGCEASWQIAQSGIPVILHEMRPQKKSEAHKTGQLAELVCSNSFRSDDSSTNAVGLLHTEMRLAKSLIMKAADANKVPAGSALAVDRDGFSKTVTAALENHPLITIKREEIQEIPENWPHIIIATGPLTSPKLAKAIQTITGTEALSFFDAIAPIIYTDSINMDICWYQSRYDKIGPEGTGKDYLNCPLNKEQYEAFVQALKNAEKTEFRDFEKTPYFDGCLPIEVMAERGLETLRHGPMKPMGLTNAHNPTVKAYAVVQLRQDNKLGTLYNMVGFQTKLKYGEQVRIFRMIPGLENAEFARLGGLHRNTYLNSPIILDQTLRLKQRPGLRFAGQITGCEGYVESSAIGLLAGRFAAAEYHYNCPCLPPLTTALGLEHHHHHH | soluble |
| MAKLGPAGYSPYPVAVTEGVLTPPPGKALMFNEIVDEEIAMREAAKAMLTRDNPTIFPGPQVLYAWNEEAKEKAKLVRKMAEVLGAKIIPMYDYRPKYPKIDPEKEINPNHPNLTIWHNKIKACIFIGVHCHYANVALKIIRAETDCFTIAMCSMAGHEDAMITLRDQHVEDLEKFIKIAEEVKKELGK | not soluble |
| MNPEVTVLMSVYNDKNYLSESIESILNQTFENFEFLIINDASTDGSGELLEEYSKKDKRIRLIHNKNNRGLSYSLAEGVSLAKAPWIARMDADDVSFKDRLAVQMDHVKAHSELDILGSYVIDIDDKGNELEIRKVPTTHKEIANLIWTCPFIHPTVLFKKDSIIKAGSYDRNLRRRQDYDLWFRCLEAKLKFENIDKPLLYYRSTDDYYKKNNFKVQVQQAKMGFAGARRVKAKPIAYIGITVAFIKGILPYHIRKPLSQLLKKVDPRRALEHHHHHH | soluble |
| MAHHHHHHMSSSVVIVGDSICGGDGDQKLSTSHDEVYLRGFNTFAGNNPSDRALLHEGAGEVVAAISGHIEVTERVISVKGLLPRYQPEIGDVVVGRIVEVSGNKWHVDVNSTQTAIMLLSSVTEPGGILRRRGRGDELGMRQIFDQDDLVAAEVQRISPDGVMSLHTRAADKYGRLSGLGILVSVRPSLVKRAKHQFVELADYSTQLIIGMNGNIWICSVQPSTSDAEETEHATDARQNVARVANCIKALGAAQVQIHPASIEASVAASLDAGLSVFDVSLPKNRDALVARVADMVGMQHRRPTGGGACARTLV | not soluble |
| MGSDKIHHHHHHMTIKETSRSEFITLRGLRYHVRQWGTPGAPKLFMLHGWMDVAASFQFLVDCLERDWHVIAPDWRGFGETDWPTRYPGTESYWFADYIADLEALLDHYQPNGQVDLVGHSMGANVACLYAGIRPERVHRVVDLEGFGLTQTRAEQAPKRYARWLDELRQRPELRTYDDVSGVAARLQKTNPRLPDDRAAFLAEHWSRRNEAGQWEILGDPAHKLVNPVLYRVDEVMAIWAEVSAPVLHVEARDSATLRHIAHKQTLEEFRERFRAFRDFREVVIDDAGHMLHHDQPAAVAALIESFIA | not soluble |
| MFFIRTAGLRDIEPVRTLLATTWHATYDAIYGADKVNELIAVWHSPQAMKDRVEKKGGEFLVADDGKRIGGMAYGSMSTKMAKTALLHQLYVAPDLQRQGVGRDLFAELETCFPDAEIMRLEVEPKNTVAIAFYEGVGFVEVDRIERMAGIEGLPGIVMEKSLTR | not soluble |
